Test results reported in patent US20250346890A1, “LEUKEMIA TREATMENT” (Deutsches Krebsforschungszentrum, priority 2019, published 2025).

Assays:
ZNRF3 and ALK3^ECD = target: T1, ZNRF3 and ALK3^ECD (Homo sapiens, UniProt P36894+Q9ULT6); experiment: In vitro binding assay for ZNRF3 and ALK3^ECD; details: plates coated with ZNRF3 Fc, ALK3^ECD-AP preincubated with the protein
T1 construct: purchased R&D systems 7994-RF
Description: High binding 96-well plates (Greiner M5811) were coated with 2 μg ml^−1 of recombinant human RSPO1 (Peprotech 120-38), RSPO2 (Peprotech 120-43), RSPO3 (Peprotech 120-44) or FGF8b (Peprotech 100-25) recombinant protein reconstituted in bicarbonate coating buffer (50 mM NaHCO3, pH 9.6) overnight at 4° C. Coated wells were washed three times with TBST (TBS, 0.1% Tween-20) and blocked with 5% BSA in TBST for 1 hour at room temperature. 1.5 U ml^−1 of ALK3^ECD-AP or control conditioned medium was incubated overnight at 4° C. Wells were washed six times with TBST and bound AP activity was measured by the chemiluminescent SEAP Reporter Gene Assay kit (Abcam ab 133077). For ZNRF3-ALK3 binding assay, plates were coated with recombinant human ZNRF3 Fc Chimera protein (R&D systems 7994-RF). ALK3^ECD-AP was preincubated with RSPO2-Flag, RSPO2^ΔTSP-Flag conditioned medium or recombinant RSPO protein prior to treatment. Control conditioned medium and vesicles were used as control. […] Statistical analyses show unpaired t-tests.

LGR4 = target: T2, LGR4 (Xenopus tropicalis, UniProt B0BLW3); experiment: Cell surface binding assay in HEK293T cells transfected with LGR4
T2 construct: expressed in transfected cells; host or cells: HEK293T
T2 sequence (B0BLW3 22-955): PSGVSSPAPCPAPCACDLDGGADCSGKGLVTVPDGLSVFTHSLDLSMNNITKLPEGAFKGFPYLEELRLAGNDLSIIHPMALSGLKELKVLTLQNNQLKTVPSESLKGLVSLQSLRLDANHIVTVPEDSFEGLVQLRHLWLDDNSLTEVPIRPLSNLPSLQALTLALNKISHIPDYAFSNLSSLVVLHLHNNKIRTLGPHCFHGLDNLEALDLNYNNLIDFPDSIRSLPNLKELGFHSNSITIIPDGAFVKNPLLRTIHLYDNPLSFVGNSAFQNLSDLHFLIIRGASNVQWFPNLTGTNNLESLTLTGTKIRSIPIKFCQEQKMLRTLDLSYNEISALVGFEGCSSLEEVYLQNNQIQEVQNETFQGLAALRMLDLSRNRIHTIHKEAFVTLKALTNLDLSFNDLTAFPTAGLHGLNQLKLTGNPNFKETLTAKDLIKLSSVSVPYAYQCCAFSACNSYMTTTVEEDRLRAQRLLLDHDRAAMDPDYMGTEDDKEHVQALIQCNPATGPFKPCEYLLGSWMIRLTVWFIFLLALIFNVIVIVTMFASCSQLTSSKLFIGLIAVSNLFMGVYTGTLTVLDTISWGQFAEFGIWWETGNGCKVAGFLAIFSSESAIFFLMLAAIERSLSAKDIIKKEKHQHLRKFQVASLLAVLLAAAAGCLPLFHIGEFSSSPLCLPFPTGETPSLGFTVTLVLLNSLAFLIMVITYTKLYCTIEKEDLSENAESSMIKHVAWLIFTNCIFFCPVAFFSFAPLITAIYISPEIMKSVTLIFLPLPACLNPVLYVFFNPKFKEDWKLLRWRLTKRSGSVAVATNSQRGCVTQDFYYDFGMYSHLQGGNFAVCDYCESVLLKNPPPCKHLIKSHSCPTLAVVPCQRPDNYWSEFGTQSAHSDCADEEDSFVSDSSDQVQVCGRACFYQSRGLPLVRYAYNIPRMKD
Description: Cell surface binding assays were carried essentially out as previously described (Dosch et al. (1997), Development 124, 2325-2334). In brief, human ALK3-HA and Xenopus tropicalis LGR4 DNA were transfected in HEK293T cells, and incubated with 1.5 U ml^−1 conditioned media for 3 hours on ice. After several washes and crosslinking, cells were treated with 2 mM Levamisole for 20 min to inactivate endogenous AP activities and developed with BM-Purple (Sigma 11442074001). Cells were mounted with Fluoromount G. Images were obtained using LEICA DMIL microscope/Canon DS126311 camera.

T1 sequence (Q9ULT6 56-219 limits assumed): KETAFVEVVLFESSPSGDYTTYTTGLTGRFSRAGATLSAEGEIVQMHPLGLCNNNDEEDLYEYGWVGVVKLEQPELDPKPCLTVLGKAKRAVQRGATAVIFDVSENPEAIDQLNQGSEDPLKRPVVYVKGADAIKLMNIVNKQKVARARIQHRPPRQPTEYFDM
T1 sequence (P36894 24-152 limits assumed): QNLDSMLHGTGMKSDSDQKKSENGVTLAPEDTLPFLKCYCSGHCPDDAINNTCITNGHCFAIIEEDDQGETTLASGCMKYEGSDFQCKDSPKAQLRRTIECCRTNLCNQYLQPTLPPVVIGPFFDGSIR

B1: RSPO2: human R-spondin 2 protein (SEQ ID NO:1); conditioned medium or recombinant (Peprotech 120-43) (protein, listed as Homo sapiens)
chain: MQFRLFSFALIILNCMDYSHCQGNRWRRSKRASYVSNPICKGCLSCSKDNGCSRCQQKLFFFLRREGMRQYGECLHSCPSGYYGHRAPDMNRCARCRIENCDSCFSKDFCTKCKVGFYLHRGRCFDECPDGFAPLEETMECVEGCEVGHWSEWGTCSRNNRTCGFKWGLETRTRQIVKKPVKDTILCPTIAESRRCKMTMRHCPGGKRTPKAKEKRNKKKKRKLIERAQEQHSVFLATDRANQ
With B1 the “ZNRF3 interaction with ALK3 in the presence of the protein” value (ZNRF3 and ALK3^ECD) was “interacted with ALK3” and the LGR binding (LGR4) was “required the FU domains but not TSP1”.
